From patent US20180030151A1 (MOGAM INSTITUTE FOR BIOMEDICAL RESEARCH, published 2018)
Where two headings read alike, the source gives them in different places.

Tests used:
[1] = molecular target: T1, recombinant human TFPI (tissue factor pathway inhibitor) (human, UniProt P10646 29-304); experiment: cell-based or functional assay
[2] = molecular target: T1, recombinant human TFPI (tissue factor …); experiment: cell-based or functional assay; remark: listed apart in the source
[3] = molecular target: T1, recombinant human TFPI (tissue factor …); experiment: cell-based or functional assay; remark: listed apart in the source
[4] = molecular target: T1, recombinant human TFPI (tissue factor …); experiment: cell-based or functional assay; remark: listed apart in the source
[5] = molecular target: T1, recombinant human TFPI (tissue factor …); experiment: cell-based or functional assay; remark: listed apart in the source
[6] = molecular target: T1, recombinant human TFPI (tissue factor …); experiment: cell-based or functional assay; remark: listed apart in the source
[7] = molecular target: T1, recombinant human TFPI (tissue factor …); experiment: cell-based or functional assay; remark: listed apart in the source
[8] = molecular target: T1, recombinant human TFPI (tissue factor …); experiment: cell-based or functional assay; remark: listed apart in the source
[9] = molecular target: T1, recombinant human TFPI (tissue factor …); experiment: cell-based or functional assay; remark: listed apart in the source
[10] = molecular target: T1, recombinant human TFPI (tissue factor …); experiment: cell-based or functional assay; remark: listed apart in the source
[11] = molecular target: T1, recombinant human TFPI (tissue factor …); experiment: cell-based or functional assay; remark: listed apart in the source
[12] = molecular target: T1, recombinant human TFPI (tissue factor …); experiment: cell-based or functional assay; remark: listed apart in the source
[13] = molecular target: T1, recombinant human TFPI (tissue factor …); experiment: SPR, Biacore T-200; TFPI immobilised on CM5 chip, IgG as analyte
Method: 10 mM of glycine-HCl (pH 1.5) was run at a flow rate of 30 μL/min for 30 seconds, thereby inducing the dissociation of the antibody associated with the TFPI. The affinity in terms of kinetic rate constants (Kₒₙ and Koff) and equilibrium dissociation constant

[14] = molecular target: TFPI in FVIII-deficient plasma (sample dilution); experiment: cell-based or functional assay

B1: clone 308-4 (antibody, V domains shown)
VH: EVQLVESGGGLVKPGGSLRLSCAASGFTFSSYAMNWVRQAPGKGLEWVSTITTGGSYTYYADSVEGRFTISRDNAKNSLYLQMNSLRAEDTAVYYCARQDGNFLMDYWGQGTLVTVSS
VL: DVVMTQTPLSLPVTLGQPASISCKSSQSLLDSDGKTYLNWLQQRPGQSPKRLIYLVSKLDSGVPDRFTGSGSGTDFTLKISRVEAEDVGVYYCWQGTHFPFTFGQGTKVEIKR
[1]
  TFPI inhibitory activity, FXa activity assay, Ab 10 nM: 78%
  TFPI inhibitory activity, FXa activity assay, Ab 40 nM: 82%
  TFPI inhibitory activity, TF/FVIIa/FXa complex assay, Ab 50 nM: 100%
  TFPI inhibitory activity, TF/FVIIa/FXa complex assay, Ab 100 nM: 100%
[2]
  A405, TF/FVIIa/FX complex assay, Ab 1.56 nM: 0.135
  A405, TF/FVIIa/FX complex assay, Ab 3.13 nM: 0.155
  A405, TF/FVIIa/FX complex assay, Ab 6.25 nM: 0.177
  A405, TF/FVIIa/FX complex assay, Ab 12.5 nM: 0.223
  A405, TF/FVIIa/FX complex assay, Ab 25 nM: 0.664
  A405, TF/FVIIa/FX complex assay, Ab 50 nM: 0.926
  A405, TF/FVIIa/FX complex assay, Ab 100 nM: 0.938
[3]
  % of Normalized, TF/FVIIa/FX complex assay, Ab 1.56 nM: 14.7%
  % of Normalized, TF/FVIIa/FX complex assay, Ab 3.13 nM: 16.8%
  % of Normalized, TF/FVIIa/FX complex assay, Ab 6.25 nM: 19.2%
  % of Normalized, TF/FVIIa/FX complex assay, Ab 12.5 nM: 24.2%
  % of Normalized, TF/FVIIa/FX complex assay, Ab 25 nM: 72.3%
  % of Normalized, TF/FVIIa/FX complex assay, Ab 50 nM: 101%
  % of Normalized, TF/FVIIa/FX complex assay, Ab 100 nM: 102%
[4]
  A405, TF/FVIIa/FX complex assay, Ab 1.56 nM: 0.154
  A405, TF/FVIIa/FX complex assay, Ab 3.13 nM: 0.164
  A405, TF/FVIIa/FX complex assay, Ab 6.25 nM: 0.185
  A405, TF/FVIIa/FX complex assay, Ab 12.5 nM: 0.222
  A405, TF/FVIIa/FX complex assay, Ab 25 nM: 0.716
  A405, TF/FVIIa/FX complex assay, Ab 50 nM: 0.909
  A405, TF/FVIIa/FX complex assay, Ab 100 nM: 0.926
[5]
  % of Normalized, TF/FVIIa/FX complex assay, Ab 1.56 nM: 16.1%
  % of Normalized, TF/FVIIa/FX complex assay, Ab 3.13 nM: 17.2%
  % of Normalized, TF/FVIIa/FX complex assay, Ab 6.25 nM: 19.4%
  % of Normalized, TF/FVIIa/FX complex assay, Ab 12.5 nM: 23.2%
  % of Normalized, TF/FVIIa/FX complex assay, Ab 25 nM: 75%
  % of Normalized, TF/FVIIa/FX complex assay, Ab 50 nM: 95.2%
  % of Normalized, TF/FVIIa/FX complex assay, Ab 100 nM: 97%
[6]
  FXa assay % of FXa alone, 0.625 nM Ab, 10 nM TFPI: 4%
  FXa assay % of FXa alone, 2.5 nM Ab, 10 nM TFPI: 8%
  FXa assay OD, 0.625 nM Ab, 10 nM TFPI: 0.042 OD
  FXa assay OD, 2.5 nM Ab, 10 nM TFPI: 0.083 OD
  FXa assay OD, 10 nM Ab, 10 nM TFPI: 0.765 OD
  FXa assay OD, 40 nM Ab, 10 nM TFPI: 0.804 OD
[7]
  TF/FVIIa/FXa assay % of 0 nM TFPI, 12.5 nM Ab, 50 nM TFPI: 20.7%
  TF/FVIIa/FXa assay % of 0 nM TFPI, 50 nM Ab, 50 nM TFPI: 111%
  TF/FVIIa/FXa assay % of 0 nM TFPI, 100 nM Ab, 50 nM TFPI: 111%
  TF/FVIIa/FXa assay OD, 12.5 nM Ab, 50 nM TFPI: 0.166 OD
  TF/FVIIa/FXa assay OD, 25 nM Ab, 50 nM TFPI: 0.548 OD
  TF/FVIIa/FXa assay OD, 50 nM Ab, 50 nM TFPI: 0.886 OD
  TF/FVIIa/FXa assay OD, 100 nM Ab, 50 nM TFPI: 0.89 OD
[8]
  FXa assay % of FXa alone, 2.5 nM Ab, 10 nM TFPI: 8.3%
  FXa assay % of FXa alone, 5 nM Ab, 10 nM TFPI: 59.8%
  FXa assay % of FXa alone, 10 nM Ab, 10 nM TFPI: 73.9%
  FXa assay % of FXa alone, 20 nM Ab, 10 nM TFPI: 74.1%
  FXa assay OD, 2.5 nM Ab, 10 nM TFPI: 0.06
  FXa assay OD, 5 nM Ab, 10 nM TFPI: 0.43
  FXa assay OD, 10 nM Ab, 10 nM TFPI: 0.531
[9]
  FXa assay % of FXa alone, 2.5 nM Ab, 10 nM TFPI: 9.9%
  FXa assay % of FXa alone, 5 nM Ab, 10 nM TFPI: 56.8%
  FXa assay % of FXa alone, 10 nM Ab, 10 nM TFPI: 76.8%
  FXa assay % of FXa alone, 20 nM Ab, 10 nM TFPI: 77.3%
  FXa assay OD, 2.5 nM Ab, 10 nM TFPI: 0.0765
  FXa assay OD, 5 nM Ab, 10 nM TFPI: 0.438
  FXa assay OD, 10 nM Ab, 10 nM TFPI: 0.591
[10]
  FXa assay % of FXa alone, 2.5 nM Ab, 10 nM TFPI: 8.5%
  FXa assay % of FXa alone, 5 nM Ab, 10 nM TFPI: 26.5%
  FXa assay % of FXa alone, 10 nM Ab, 10 nM TFPI: 57.9%
  FXa assay % of FXa alone, 20 nM Ab, 10 nM TFPI: 67%
  FXa assay OD, 2.5 nM Ab, 10 nM TFPI: 0.041
  FXa assay OD, 5 nM Ab, 10 nM TFPI: 0.129
  FXa assay OD, 10 nM Ab, 10 nM TFPI: 0.28
  FXa assay OD, 20 nM Ab, 10 nM TFPI: 0.325
[11]
  FXa assay % of FXa alone, 2.5 nM Ab, 10 nM TFPI: 8.6%
  FXa assay % of FXa alone, 5 nM Ab, 10 nM TFPI: 30.7%
  FXa assay % of FXa alone, 10 nM Ab, 10 nM TFPI: 60.4%
  FXa assay % of FXa alone, 20 nM Ab, 10 nM TFPI: 71.6%
  FXa assay OD, 2.5 nM Ab, 10 nM TFPI: 0.069
  FXa assay OD, 5 nM Ab, 10 nM TFPI: 0.247
  FXa assay OD, 10 nM Ab, 10 nM TFPI: 0.487
  FXa assay OD, 20 nM Ab, 10 nM TFPI: 0.578
[12]
  FXa assay % of FXa alone, 2.5 nM Ab, 10 nM TFPI: 7%
  FXa assay % of FXa alone, 5 nM Ab, 10 nM TFPI: 20.8%
  FXa assay % of FXa alone, 10 nM Ab, 10 nM TFPI: 49.3%
  FXa assay % of FXa alone, 20 nM Ab, 10 nM TFPI: 68.4%
  FXa assay OD, 2.5 nM Ab, 10 nM TFPI: 0.057
  FXa assay OD, 5 nM Ab, 10 nM TFPI: 0.169
  FXa assay OD, 10 nM Ab, 10 nM TFPI: 0.401
  FXa assay OD, 20 nM Ab, 10 nM TFPI: 0.555
[13]
  Kd: 24 pM

B2: clone 308 (antibody, V domains shown)
VH: EVQLVESGGGLVKPGGSLRLSCAASGFTFSSYAMNWVRQAPGKGLEWVSTITTGGSYTYYADSVKGRFTISRDNAKNSLYLQMNSLRAEDTAVYYCARQDGNFLMDYWGQGTLVTVSS
VL: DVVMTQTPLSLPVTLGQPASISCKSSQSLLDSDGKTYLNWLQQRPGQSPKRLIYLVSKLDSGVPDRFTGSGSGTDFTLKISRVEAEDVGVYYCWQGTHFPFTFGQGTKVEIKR
notes: Humanized form of T417, IgG
[1]
  TFPI inhibitory activity, FXa activity assay, Ab 10 nM: ~58.2%
  TFPI inhibitory activity, FXa activity assay, Ab 40 nM: ~85.1%
  TFPI inhibitory activity, TF/FVIIa/FXa complex assay, Ab 50 nM: ~54.2%
  TFPI inhibitory activity, TF/FVIIa/FXa complex assay, Ab 100 nM: ~94.3%
[14]
  ETP vs negative control, thrombin generation assay, Ab 2.5 nM: 122%
  thrombin peak vs blank, thrombin generation assay, Ab 2.5 nM: 162%
[6]
  FXa assay % of FXa alone, 0.625 nM Ab, 10 nM TFPI: 5%
  FXa assay % of FXa alone, 2.5 nM Ab, 10 nM TFPI: 8%
  FXa assay OD, 0.625 nM Ab, 10 nM TFPI: 0.049 OD
  FXa assay OD, 2.5 nM Ab, 10 nM TFPI: 0.078 OD
  FXa assay OD, 10 nM Ab, 10 nM TFPI: 0.519 OD
  FXa assay OD, 40 nM Ab, 10 nM TFPI: 0.718 OD
[7]
  TF/FVIIa/FXa assay % of 0 nM TFPI, 12.5 nM Ab, 50 nM TFPI: 17.9%
  TF/FVIIa/FXa assay % of 0 nM TFPI, 50 nM Ab, 50 nM TFPI: 66.5%
  TF/FVIIa/FXa assay % of 0 nM TFPI, 100 nM Ab, 50 nM TFPI: 104%
  TF/FVIIa/FXa assay OD, 12.5 nM Ab, 50 nM TFPI: 0.143 OD
  TF/FVIIa/FXa assay OD, 25 nM Ab, 50 nM TFPI: 0.248 OD
  TF/FVIIa/FXa assay OD, 50 nM Ab, 50 nM TFPI: 0.533 OD
  TF/FVIIa/FXa assay OD, 100 nM Ab, 50 nM TFPI: 0.833 OD
[13]
  Kd: 50 pM
